Experimental data from paper PMC4863600.

Target: D. radiodurans DNA gyrase holoenzyme (reconstituted from GyrA::6His and 6His::GyrB) (D. radiodurans) (UniProt Q9RT53)

decatenation of kDNA by DNA gyrase (4 nM) with increasing concentrations of PprA; ratio of minicircles released with PprA over without PprA: 7 fold
B1: PprA::6His protein (natural protein)
chain: MLPLAFLICSGHNKGSMARAKAKDQTDGIYAAFDTLMSTAGVDSQIAALAASEADAGTLDAALTQSLQEAQGRWGLGLHHLRHEARLTDDGDIEILTDGRPSARVSEGFGALAQAYAPMQALDERGLSQWAALGEGYRAPGDLPLAQLKVLIEHARDFETDWSAGRGETFQRVWRKGDTLFVEVARPASAEAALSDAAWDVIASIKDRAFQRELMRRSEKDGMLGALLGARHAGAKANLAQLPEAHFTVQAFVQTLSGAAARNAEEYRAALKTAAAALEEYQGVTTRQLSEVLRHGLRES
